This experiment addresses T1, human EPOR ectodomain (ECD) fused to a human Fc domain (EPOR-Fc) (human, UniProt P19235 25-250).
T1 chain: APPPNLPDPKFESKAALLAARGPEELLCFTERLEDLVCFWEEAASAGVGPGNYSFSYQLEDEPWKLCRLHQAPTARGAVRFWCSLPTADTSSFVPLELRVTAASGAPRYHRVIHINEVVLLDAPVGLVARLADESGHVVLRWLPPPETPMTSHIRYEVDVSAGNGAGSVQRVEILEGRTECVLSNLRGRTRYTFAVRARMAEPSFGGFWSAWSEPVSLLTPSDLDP
Description: ELISA.

B1: Db-Fc 1.1 (Fc fusion)
chain 1: EVQLVESGGGLVQPGGSLRLSCAASGFNLRSYYMHWVRQAPGKGLEWVASISPYYSYTYYADSVKGRFTISADTSKNTAYLQMNSLRAEDTAVYYCARHGYGAMDYWGQGTLVTVSS
chain 2: DIQMTQSPSSLSASVGDRVTITCRASQSVSSAVAWYQQKPGKAPKLLIYSASSLYSGVPSRFSGSRSGTDFTLTISSLQPEDFATYYCQQSSYSLITFGQGTKVEIK
For the molecule B1, a half-maximal effect (EC50) was put at 0.9 nM. That is a sub-nanomolar value.
